Usually Kd stands for the free concentration of one partner at which half of the binding sites on the other are occupied at equilibrium, for simple one-to-one binding. Higher therefore signals lower affinity. As a reminder, the stoichiometry N is the number of molecules, sites or subunits per partner or assembly.

B4: human LIGHT extracellular domain (L83-V240) (ligand, UniProt O43557 83-240, looked up)
chain: LIQERRSHEVNPAAHLTGANSSLTGSGGPLLWETQLGLAFLRGLSYHDGALVVTKAGYYYIYSKVQLGGVGCPLGLASTITHGLYKRTPRYPEELELLVSQQSPCGRATSSSRVWWDSSFLGGVVHLEAGEKVVVRVLDERLVRLRDGTRSYFGAFMV
notes: human LIGHT (TNFSF14), extracellular domain, residues L83-V240; Homotrimer; The His tag is used for detection in the flow cytometry staining; also called hLIGHT; TNFSF14; not shown: His6 (HHHHHHG), N-terminal, kept

For series [1], the target named is mBTLA protein. Put plainly: flow cytometry, cell–protein method. Particulars: parent: est. 1.0; read off a plot. (Flow cytometry measures light scatter and fluorescence of single cells or particles in a stream.)
Series [2] addresses full-length mouse BTLA-EGFP, on cells (UniProt Q7TSA3). Put plainly: flow cytometry, cell–cell method.
Series [3] addresses full-length mouse LIGHT, on cells (mLIGHT-IRES-EGFP) (UniProt Q9QYH9). Put plainly: flow cytometry, cell–cell method.
For series [4], the target named is mouse CD160 (30I-154H) with C-terminal …, biotinylated (UniProt O88875). Put plainly: flow cytometry, cell–protein method.
The target in series [5] is human LIGHT extracellular domain (L83-V240) (human) (UniProt O43557). Put plainly: crystal structure; single-chain hCD160–hHVEM and hLIGHT mixed in a 1:1 molar ratio, 5 mg/ml in 10 mM Hepes pH 7.0, 150 mM NaCl; crystallised in 12% PEG3350, 4% tacsimate; 3.5 Å.
Series [6] deals with mHVEM^−LIGHT (H86D-L90A) soluble protein, mHVEM-hIgG1 format (mouse, UniProt Q80WM9 39-206, H86D | L90A). Put plainly: BLI. (In general: BLI is a label-free optical method that tracks binding on a fibre tip over time.)
Series [7] deals with T1, mHVEM (Q39-Q206)-human IgG1-hexa-His, WT (mouse, UniProt Q80WM9 39-206).
T1 chain: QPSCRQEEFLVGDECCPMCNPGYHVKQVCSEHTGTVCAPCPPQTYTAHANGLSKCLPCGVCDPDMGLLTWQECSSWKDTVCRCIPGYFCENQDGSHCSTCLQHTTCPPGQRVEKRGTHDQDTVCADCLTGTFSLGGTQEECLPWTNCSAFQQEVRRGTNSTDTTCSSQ
Put plainly: BLI.

Series [8] addresses T2, mHVEM^−LIGHT (H86D-L90A) soluble protein, mHVEM-hIgG1 format (mouse, UniProt Q80WM9 39-206, H86D | L90A).
T2 construct: mouse HVEM (TNFRSF14) residues Q39-Q206 with H86D and L90A; also called mHVEM H86D-L90A double mutein; source: expressed in soluble form (Expi293, purified on Ni resin, as told for mHVEM-hIgG1); not shown: Fc (human IgG1), C-terminal, kept
T2 sequence (looked up): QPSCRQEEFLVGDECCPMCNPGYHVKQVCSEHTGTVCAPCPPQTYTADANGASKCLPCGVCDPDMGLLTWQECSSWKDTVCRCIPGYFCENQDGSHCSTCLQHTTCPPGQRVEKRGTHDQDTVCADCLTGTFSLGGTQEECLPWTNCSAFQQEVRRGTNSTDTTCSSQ
Put plainly: BLI; Octet; mHVEM-hIgG1 immobilised on the sensors, challenged with different concentrations of mLIGHT, mBTLA or mCD160; steady-state fit for mLIGHT, 1:1 Langmuir model for mBTLA and mCD160. The following applies: both partners purified.

Series [9] deals with T3, mHVEM (Q39-Q206)-human IgG1-hexa-His, WT (mouse, UniProt Q80WM9 39-206).
T3 construct: mouse HVEM (TNFRSF14) residues Q39-Q206; pcDNA 3.3; also called mHVEM-hIgG1; mHVEM^WT; source: Expi293, transfected, purified (Ni resin); not shown: Fc (human IgG1), C-terminal, kept
T3 sequence (looked up): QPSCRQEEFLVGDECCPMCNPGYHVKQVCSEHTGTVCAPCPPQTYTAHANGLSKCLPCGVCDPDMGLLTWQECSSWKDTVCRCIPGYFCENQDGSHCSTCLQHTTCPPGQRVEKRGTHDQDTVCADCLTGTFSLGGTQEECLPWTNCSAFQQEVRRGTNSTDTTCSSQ
Described as above. The following applies: both partners purified.

Series [10] has as its target mHVEM^−BT/160 (G72R-V74A) soluble protein, mHVEM-hIgG1 format (mouse, UniProt Q80WM9 39-206, G72R | V74A). Put plainly: BLI.
For series [11], the target named is T4, mHVEM^−BT/160 (G72R-V74A) soluble protein, mHVEM-hIgG1 format (mouse, UniProt Q80WM9 39-206, G72R | V74A).
T4 construct: mouse HVEM (TNFRSF14) residues Q39-Q206 with G72R and V74A; also called mHVEM G72R-V74A double mutein; source: expressed in soluble form (Expi293, purified on Ni resin, as told for mHVEM-hIgG1); not shown: Fc (human IgG1), C-terminal, kept
T4 sequence (looked up): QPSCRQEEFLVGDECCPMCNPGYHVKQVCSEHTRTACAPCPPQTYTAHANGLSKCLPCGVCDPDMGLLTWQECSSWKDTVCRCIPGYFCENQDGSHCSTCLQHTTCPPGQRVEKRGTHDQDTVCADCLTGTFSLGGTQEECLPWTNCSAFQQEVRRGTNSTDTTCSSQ
Put plainly: BLI; Octet; mHVEM-hIgG1 immobilised on the sensors, challenged with different concentrations of mLIGHT, mBTLA or mCD160; steady-state fit for mLIGHT, 1:1 Langmuir model for mBTLA and mCD160. The following applies: both partners purified.

Series [12] deals with the molecule itself. Put plainly: crystal structure; hHVEM and hLIGHT mixed in a 1:1 molar ratio, 3 mg/ml in 10 mM Hepes pH 7.0, 150 mM NaCl; crystallised in 0.1 M Bis-Tris pH 5.5, 0.2 M MgCl2, 9% PEG3350; 2.30 Å.
The target in series [13] is B4. Put plainly: SEC; analytical SEC; equal molar equivalents of hLIGHT and hHVEM monomers mixed. Particulars: both partners purified.

Turning to “full-length WT mouse HVEM-mCherry, on cells (from UniProt Q80WM9) G72D; V74D”, the ratio to parent in series [1] was determined as 0.01.

Regarding “full-length WT mouse HVEM-mCherry, on cells (from UniProt Q80WM9) H86D; L90D”, the ratio to parent in [1] turned out to be 0.82.

For the molecule “full-length WT mouse HVEM-mCherry, on cells (from UniProt Q80WM9) G72A; V74D”, in series [1], the ratio to parent came to 0.01.

“full-length WT mouse HVEM-mCherry, on cells (from UniProt Q80WM9) H86A; L90A”: the ratio to parent in [1] turned out to be 0.78.

As for “full-length WT mouse HVEM-mCherry, on cells (from UniProt Q80WM9) G72D; V74A”, in [1], the ratio to parent amounted to 0.02.

Regarding “full-length WT mouse HVEM-mCherry, on cells (from UniProt Q80WM9) A76A”, the ratio to parent was 1.1 in series [2], 1.2 in series [3] and 1 in [4].

For the molecule “full-length WT mouse HVEM-mCherry, on cells (from UniProt Q80WM9) G72D; V74R”, the ratio to parent in series [1] was 0.01.

As for “full-length WT mouse HVEM-mCherry, on cells (from UniProt Q80WM9) H86D; L90R”, the ratio to parent in series [1] is 0.63.

Take “single-chain hCD160–hHVEM fusion protein”: the stoichiometry N (hCD160–hHVEM per hLIGHT homotrimer) in series [5] was determined as 3.

As for “full-length WT mouse HVEM-mCherry, on cells (from UniProt Q80WM9) H86R; L90A”, the ratio to parent in series [1] was found to be 0.66.

Take “full-length WT mouse HVEM-mCherry, on cells (from UniProt Q80WM9) G72R; V74A”: the ratio to parent in [1] is 0.01.

B1: mouse CD160 (30I-154H) with C-terminal …, biotinylated (ligand)
chain: IHVTSSASQKGGRLDLTCTLWHKKDEAEGLILFWCKDNPWNCSPETNLEQLRVKRDPETDGITEKSSQLVFTIEQATPSDSGTYQCCARSQKPEIYIHGHFLSVLVTGNHTEIRQRQRSHPDFSH
modifications: biotin
For the molecule B1, the Kd was 33.5 µM in series [6] and 11.6 µM in series [7].

B2: mouse CD160 (30I-154H) with C-terminal [residues removed], biotinylated (ligand, UniProt O88875 30-154, looked up)
chain: IHVTSSASQKGGRLDLTCTLWHKKDEAEGLILFWCKDNPWNCSPETNLEQLRVKRDPETDGITEKSSQLVFTIEQATPSDSGTYQCCARSQKPEIYIHGHFLSVLVTGNHTEIRQRQRSHPDFSH
modifications: biotin
notes: mouse CD160 residues 30I-154H; also called mCD160; mCD160-biotin
With B2, in [8], the “fold reduction of binding against WT mHVEM” value was around 3 fold. In addition, the binding result in series [9] is “binds”.

B3: single chain homotrimeric mLIGHT extracellular domain (G73-V239) connected by two (GGGGS)4 linkers (ligand, mouse)
chain: GGKGSWEKLIQDQRSHQANPAAHLTGANASLIGIGGPLLWETRLGLAFLRGLTYHDGALVTMEPGYYYVYSKVQLSGVGCPQGLANGLPITHGLYKRTSRYPKELELLVSRRSPCGRANSSRVWWDSSFLGGVVHLEAGEEVVVRVPGNRLVRPRDGTRSYFGAFMVGGGGSGGGGSGGGGSGGGGSGGKGSWEKLIQDQRSHQANPAAHLTGANASLIGIGGPLLWETRLGLAFLRGLTYHDGALVTMEPGYYYVYSKVQLSGVGCPQGLANGLPITHGLYKRTSRYPKELELLVSRRSPCGRANSSRVWWDSSFLGGVVHLEAGEEVVVRVPGNRLVRPRDGTRSYFGAFMVGGGGSGGGGSGGGGSGGGGSGGKGSWEKLIQDQRSHQANPAAHLTGANASLIGIGGPLLWETRLGLAFLRGLTYHDGALVTMEPGYYYVYSKVQLSGVGCPQGLANGLPITHGLYKRTSRYPKELELLVSRRSPCGRANSSRVWWDSSFLGGVVHLEAGEEVVVRVPGNRLVRPRDGTRSYFGAFMV
notes: mouse LIGHT (TNFSF14) extracellular domain G73-V239, first copy; linker, printed as (GGGGS)4; mouse LIGHT (TNFSF14) extracellular domain G73-V239, second copy; mouse LIGHT (TNFSF14) extracellular domain G73-V239, third copy; Three copies of the extracellular domain on one chain; source: Expi293, transfected, purified (Ni resin, SEC)
Consider B3, for which the Kd is 0.0293 µM in [10], 31.7 µM in series [6] and 0.0162 µM in [7]. Moreover, the binding result in series [11] and in [9] was “binds” each time.

Consider B4, for which the “stoichiometry N” value in [12] was determined as 3.

B5: mouse BTLA, soluble protein used as analyte in the Octet experiment (ligand, UniProt Q7TSA3 30-183, looked up)
chain: EKATKRNDEECPVQLTITRNSKQSARTGELFKIQCPVKYCVHRPNVTWCKHNGTICVPLEVSPQLYTSWEENQSVPVFVLHFKPIHLSDNGSYSCSTNFNSQVINSHSVTIHVRERTQNSSEHPLITVSDIPDATNASGPSTMEERPGRTWLLY
notes: mouse BTLA (CD272), soluble form; also called mBTLA
As to B5, the figures for the dissociation constant Kd in series [6] and in series [7] were 5.3 µM and 1.1 µM, respectively. Besides, the “fold reduction of binding against WT mHVEM” value in [8] is around 5 fold.

B6: human HVEM extracellular domain (L39-C162) (domain or fragment, UniProt Q92956 39-162, looked up)
chain: LPSCKEDEYPVGSECCPKCSPGYRVKEACGELTGTVCEPCPPGTYIAHLNGLSKCLQCQMCDPAMGLRASRNCSRTENAVCGCSPGHFCIVQDGDHCAACRAYATSSPGQRVQKGGTESQDTLC
notes: human HVEM (TNFRSF14), extracellular domain, residues L39-C162; positions numbered with initiation codon = 1; Cloned into pMT/BiP/V5-His for His-tag fusion protein production; also called hHVEM; TNFRSF14
For B6, the “stoichiometry N” value in [13] is 3 hHVEM per hLIGHT homotrimer.
